In the supplement of paper PMC10567573 one finds protein stability index data, which are given here for 53 sequences.

± gives the standard deviation.

A short description of the data set: protein stability index of a GFP-peptide fusion (GPS, HEK-293T) (PSI 1-6); higher = more stable.
Where [1] appears, read: treatment: DMSO, c terminus: a fixed tail appended.
Where [2] appears, read: treatment: MLN4924 1 uM, 8 h, c terminus: a fixed tail appended.
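Further: 24-mer peptide tiles fused after GFP, lentivirally expressed, FACS-sorted into six equal bins by GFP/DsRed ratio, decoded by Illumina sequencing, PSI is the read-weighted mean bin number.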

As to DARVKRKLRGPEPAATEAYGSGDT [TBX6], the protein stability index reads like this: under setting [1], 5.16 ± 0.3; under setting [2], 5.24 ± 0.22.
The like results for DCQAGLNFADEDEAQAFRALVQEK [WAS] were, in that order, 5.17 ± 0.22 and 5.08 ± 0.16.
For DDTETVPSEQSHASGKLRKKKKKQ [TCF25], the protein stability index reads like this: under setting [1], 5.52 ± 0.44; under setting [2], 5.88 ± 0.17.
DDVISRIDRMFPEMSIHLSRPNGT [MED27] registered a protein stability index under setting [1] of 3.25 ± 0.24 and a protein stability index under setting [2] of 3.36 ± 0.25.
With DDVLPWRRTAENKLDTKYPYVCHA [DCTD], the protein stability index came out at 3.331 ± 0.026 under setting [1] and 3.31 ± 0.39 under setting [2].
Turning to DENREVLQTLLYFLSDVTAAVKEN [DLC1], the protein stability index reads like this: under setting [1], 2.14 ± 0.28; under setting [2], 2.33 ± 0.19.
With DESLTDLEAQPYEAVFLRAVKLYN [P3H4], the protein stability index runs as follows: under setting [1], 2.58 ± 0.21; under setting [2], 2.71 ± 0.36.
Take DFDEEYFSNTSELAKDFIRRLLVK [DAPK3]: the protein stability index by setting is: under setting [1], 2.77 ± 0.28; under setting [2], 3.12 ± 0.3.
Regarding DFEFLAFWQTQYNNMNAVNLFFAW [PKD2L1], the protein stability index by setting is: under setting [1], 3.17 ± 0.5; under setting [2], 2.93 ± 0.55.
Turning to DFGSAAASGSFPSQVTATSGNGDF [CLINT1], the protein stability index is 4.95 ± 0.17 under setting [1] and 4.69 ± 0.26 under setting [2].
The like results for DGKRVIVVFHCEFSSERGPRMCRY [CDC25A] were, in that order, 2.64 ± 0.53 and 2.73 ± 0.78.
For DGNGGQFREVYVGKETMCTVDGLH [TRIM9], the protein stability index was 3.94 ± 0.37 under setting [1] and 4.11 ± 0.28 under setting [2].
With DGSVLLIPRTMADQQARRQERKPK [NFE2L1], the protein stability index reads like this: under setting [1], 3.5 ± 0.14; under setting [2], 3.63 ± 0.31.
For DIARMLYKDTCHELDELQLCKNCF [ZMYND11] the same measures were 2.27 ± 0.14 and 2.52 ± 0.49.
DIKDDIYDPTYKDKEGPSPKVEYV [SCD] gave a protein stability index under setting [1] of 4.92 ± 0.14 and a protein stability index under setting [2] of 4.68 ± 0.17.
Turning to DINGLRRILDELTLCKADLEAQVE [KRT36], the protein stability index runs as follows: under setting [1], 3.02 ± 0.33; under setting [2], 3.14 ± 0.25.
Regarding DISERPSVDDIESETGSTGALETR [C2CD2L], the protein stability index under setting [1] worked out at 5.56 ± 0.22 and the protein stability index under setting [2] was found to be 5.59 ± 0.34.
As to DKHGCPAYVSPEILNTTGTYSGKA [TRIB1], the protein stability index by setting is: under setting [1], 4.44 ± 0.26; under setting [2], 4.52 ± 0.12.
The like results for DKNRCELLSFLLLMDYIGINLATM [EDNRA] were, in that order, 2.77 ± 0.49 and 2.92 ± 0.32.
For DKSDQSLPNASADSLGGSQEMVQR [TRAF3IP2] the same measures were 5.36 ± 0.17 and 5.33 ± 0.34.
DLDDFAGFSCNQGRYPLIQTLRQE [CHIT1]: the protein stability index is 3.44 ± 0.2 under setting [1] and 3.48 ± 0.082 under setting [2].
Take DLMGVLTKGVREVERALQLPREPG [FEM1A]: the protein stability index is, setting by setting: under setting [1], 2.82 ± 0.17; under setting [2], 2.69 ± 0.37.
Take DLPSSTPVANSGTKPKTTAIQGIS [DLC1]: the protein stability index by setting is: under setting [1], 4.75 ± 0.2; under setting [2], 4.93 ± 0.065.
The like results for DLRLRLDHLGWVARGTGSGEDSST [RTN2] were, in that order, 3.53 ± 0.43 and 4.15 ± 0.37.
For DLSDLLQVDSLRPASFPTWGCDLG [BRF1], the protein stability index under setting [1] was found to be 2.53 ± 0.28 and the protein stability index under setting [2] was found to be 2.73 ± 0.31.
On to DMKAMSPENQEYFEKHRWPPVWYL [RHOBTB2], for which the protein stability index amounted to 2.47 ± 0.17 under setting [1] and 2.67 ± 0.36 under setting [2].
The like results for DMNGKSLHGKAIKVEQAKKPSFQS [RBMY1A1] were, in that order, 3.16 ± 0.2 and 3.61 ± 0.2.
The like results for DNHMSDKDESCYDNAEAAFSDDEE [INTS3] were, in that order, 5.55 ± 0.18 and 5.29 ± 0.38.
In the case of DNLKFSQEYESIDPGQQFTWEHSN [PTPRD], the protein stability index amounted to 4.57 ± 0.44 under setting [1] and 4.57 ± 0.11 under setting [2].
The like results for DPNTAAGWLSVSDDLTSVTNHGYR [TRIM35] were, in that order, 4.32 ± 0.15 and 4.31 ± 0.13.
For the sequence DQKERCIIVRTTNKKYYKKFSIPD [DPCD], the protein stability index is, setting by setting: under setting [1], 2.95 ± 0.21; under setting [2], 3.06 ± 0.27.
The sequence DQLLLATGLNNGRIKIWDVYTGKL [WSB1] displayed a protein stability index under setting [1] of 2.17 ± 0.29 and a protein stability index under setting [2] of 2.17 ± 0.31.
On to DRETQEGKPPTAHLDRTSVSSLSE [ELOA2], for which the protein stability index reads like this: under setting [1], 5.37 ± 0.34; under setting [2], 5.42 ± 0.21.
For the sequence DRPRCCLRGKECCINRFQQVESRW [BTBD1], the protein stability index reads like this: under setting [1], 2.89 ± 0.32; under setting [2], 3.06 ± 0.38.
DSAKREVKQKISPYFKSNDVVCKN [FAN1]: the protein stability index came to 3.95 ± 0.35 under setting [1] and 4 ± 0.31 under setting [2].
Turning to DSAQMQNGGPSTPPASPPADGSPP [ANKRD40], the protein stability index worked out at 5.24 ± 0.49 under setting [1] and 5.23 ± 0.19 under setting [2].
As to DSEEPVSTHQEAENEKDRADQTVL [CHGB], the protein stability index is 5.29 ± 0.56 under setting [1] and 5.65 ± 0.27 under setting [2].
The like results for DSLWHRSDSAPRNKISRFQAPISA [MFF] were, in that order, 3.43 ± 0.45 and 3.41 ± 0.19.
For the sequence DSTKTAFHRSQTLSYRNGYAIVRR [EFHC1], the protein stability index is, setting by setting: under setting [1], 3.31 ± 0.12; under setting [2], 3.48 ± 0.32.
As to DSTNVEEAFKNILTEIYRIVSQKQ [RAB11B], the protein stability index was found to be 2.29 ± 0.2 under setting [1] and 2.49 ± 0.25 under setting [2].
Take DVNSFVTECEPSELFQLQTYSLPP [CDS1]: the protein stability index worked out at 3.58 ± 0.29 under setting [1] and 3.54 ± 0.35 under setting [2].
Consider EAAGVQIQMVNESLGYVRSQFLKL [CD207], for which the protein stability index was determined as 2.334 ± 0.019 under setting [1] and 2.3 ± 0.44 under setting [2].
Consider EAAYLKILESSQTLLSVLKREAGN [SSNA1], for which the protein stability index by setting is: under setting [1], 2.39 ± 0.13; under setting [2], 2 ± 0.26.
On to EACLVAQCDALIDALNRRKAQLLA [TRIM9], for which the protein stability index by setting is: under setting [1], 2.46 ± 0.29; under setting [2], 2.65 ± 0.44.
Regarding EATTSDPQDLDMKKHRCKCCSIM [PALM], the protein stability index is 4.3 ± 0.24 (treatment: DMSO, c terminus: native) and 4.58 ± 0.23 (treatment: MLN4924 1 uM, 8 h, c terminus: native).
Turning to ECKHPSVFQHGDNSFRLLFDVVVI [MCOLN1], the protein stability index is, setting by setting: under setting [1], 2.9 ± 0.48; under setting [2], 3.02 ± 0.71.
Consider ECQYYIDKLEYLDEKQRDPRIEAS [NET1], for which the protein stability index under setting [1] amounted to 4.12 ± 0.13 and the protein stability index under setting [2] came to 4.04 ± 0.19.
In turn, EDAYKIRIRIDDEPANLDILDTAG [RIT1] came in with a protein stability index under setting [1] of 3.38 ± 0.28 and a protein stability index under setting [2] of 3.47 ± 0.65.
The like results for EDDPSVLYVSLHRYDHGTFFPMGD [HDAC6] were, in that order, 2.29 ± 0.31 and 2.37 ± 0.3.
Turning to EDNLSLVCLPRSEDDDCDDDDDDD [DRICH1], the protein stability index runs as follows: under setting [1], 5.48 ± 0.42; under setting [2], 5.51 ± 0.075.
For EEAWVKIENLAKANPQYTVYSQAS [PPP2R5C] the same measures were 3.29 ± 0.16 and 3.48 ± 0.18.
As for EEEDDDDIHITARIESDLTLESLS [DRICH1], the protein stability index is, setting by setting: under setting [1], 5.16 ± 0.12; under setting [2], 5.16 ± 0.083.
In the case of EEEDLRRRLKYFFMSPCDKFRAKG [MCOLN1], the protein stability index runs as follows: under setting [1], 2.65 ± 0.41; under setting [2], 3.15 ± 0.5.
